In patent US5976875A, “Diacylglycerol kinase isoforms epsilon and zeta and methods of use thereof” (priority 1997, dated 1999):
Like-named read-outs stand apart in the source and are kept apart here.

Experiments:
[1] = molecular target: human diacylglycerol kinase ζ (DGKζ) (human)
[2] = tested on: protein kinase M (PKM), catalytic fragment of mixed rat brain PKC isozymes; details: comparison values for MARCKS and MRP synthetic peptides; read-out: S0.5 for phosphorylation by PKM; cited from earlier work
[3] = tested on: protein kinase M (PKM), catalytic fragment of mixed rat brain PKC isozymes; assay: Phosphorylation of peptides by PKM (kinetics); assay type: biochemical; details: for Km: FIG. 15C
Protocol: Phosphorylation of peptides and proteins--Peptides were phosphorylated by the purified catalytic fragment of mixed rat brain PKC isozymes (protein kinase M; PKM). In all cases involving kinetic measurements, the peptides were phosphorylated by PKM (1:120 dilution of frozen stock solution) at 30° C. All reactions were performed in the linear range of peptide phosphorylation, in an assay mixture containing 40 mM Hepes (pH 7.4), 0.25 mM EGTA, 12.5 mM MgCl2, 75 μM y-[^32 P]ATP, and various concentrations of peptides. In the peptide experiments, the reactions were stopped after 10 minutes by the addition of 1/5 vol of 5×SDS sample buffer, boiled for 5 minutes and then subjected to electrophoresis on 20% acrylamide gels. After the gels were dried, the phosphorylated peptides were localized by autoradiography, excised from the gel, and subjected to Cerenkov scintillation counting.

[4] = molecular target: protein kinase M (PKM), catalytic fragment of mixed rat brain PKC isozymes; assay: Inhibition of PKM phosphorylation of histone IIIS; assay type: biochemical; details: histone IIIS as substrate, 10 minute reaction; read-out: half-maximal inhibition of PKM
Protocol: When the inhibitory effects of the DGK A/S peptide were assayed, histone IIIS (final concentration 20 μg/ml or as specified) was used as a substrate for PKM (1:80 dilution of frozen stock) in the reaction mixture described above. The reaction was linear for at least 40 minutes at 30° C.; 10 and 15 minute time points were chosen to evaluate inhibitory effects of the peptide. The peptide was added to the reaction mixture for 10 min at 30° C. in a shaking water bath before the reactions were started by the addition of Mg/ATP; samples were assayed using filter papers (P81, Whatman) and trichloroacetic acid precipitation.

DGK.zeta.-2 = molecular target: T1, DGK.zeta.-2 (Homo sapiens, UniProt Q13574); assay: DGK activity assay, homogenates of DGK.zeta.-2-transfected COS-7 cells; assay type: biochemical
T1 construct: the DGK.zeta.-2 cDNA was subcloned into an expression vector and transfected into COS-7 cells; expressed in transfected cells; host or cells: COS-7
Protocol: DAG Kinase Assay--Cell homogenates were sonicated twice with 5 watts for 5 at 4° C. The protein concentration of each cell homogenate was measured following trichloracetic acid precipitation utilizing the BCA protein assay reagent (Pierce). Each assay contained 50 mM MOPS, pH 7.2, 100 mM NaCl, 20 mM MgCl2, 1 mM EGTA, 1 mM dithiothreitol, 2 mM 1,2-dieleoyl-an-glycerol, 3.5 mM phosphatidylserine, 75 mM octyl-β-glucopyranoside, 500 μM [γ^32 ]ATP, and 0-20 μg of cell homogenate in a volume of 200 μl. For substrate specificity experiments, various diacylglycerol species were substituted for 1,2-dioleoyl-an-glycerol. The reactions were initiated by the addition of ATP (20-30 μCi/μmol), were incubated for 10 min. At 24° C., and were terminated by the addition of 200 μl of 1% perchloric acid. […] Fifty μl of each sample were counted directly by liquid acintillation spectrometry, and the remainder was applied to a 20×20 cm Silica 60A thin layer chromatography plate (Whatman). […] The region containing phosphatidic acid (as indicated by radiolabeled standards) and the remaining areas of each lane were scraped separately, and the radioactivity was estimated by liquid scintillation spectrometry. The amount of phosphatidic acid formed per reaction was calculated as [2(direct count)(PA cpm)(total lane cpm)]×[mole ATP/cpm]. […]

[5] = molecular target: DGK peptide, 18 amino acid peptide corresponding to residues 256-273 of DGKζ (human)
[6] = molecular target: DGK A/S peptide, the DGK peptide with an alanine substituted for the serine at residue 10 (human)
[7] = molecular target: protein kinase M (PKM), purified catalytic fragment of mixed rat brain PKC isozymes (rat)

T1 sequence (Q13574 1-1117 isoform Q13574-1 Q21R/L159V/L166C/L167C): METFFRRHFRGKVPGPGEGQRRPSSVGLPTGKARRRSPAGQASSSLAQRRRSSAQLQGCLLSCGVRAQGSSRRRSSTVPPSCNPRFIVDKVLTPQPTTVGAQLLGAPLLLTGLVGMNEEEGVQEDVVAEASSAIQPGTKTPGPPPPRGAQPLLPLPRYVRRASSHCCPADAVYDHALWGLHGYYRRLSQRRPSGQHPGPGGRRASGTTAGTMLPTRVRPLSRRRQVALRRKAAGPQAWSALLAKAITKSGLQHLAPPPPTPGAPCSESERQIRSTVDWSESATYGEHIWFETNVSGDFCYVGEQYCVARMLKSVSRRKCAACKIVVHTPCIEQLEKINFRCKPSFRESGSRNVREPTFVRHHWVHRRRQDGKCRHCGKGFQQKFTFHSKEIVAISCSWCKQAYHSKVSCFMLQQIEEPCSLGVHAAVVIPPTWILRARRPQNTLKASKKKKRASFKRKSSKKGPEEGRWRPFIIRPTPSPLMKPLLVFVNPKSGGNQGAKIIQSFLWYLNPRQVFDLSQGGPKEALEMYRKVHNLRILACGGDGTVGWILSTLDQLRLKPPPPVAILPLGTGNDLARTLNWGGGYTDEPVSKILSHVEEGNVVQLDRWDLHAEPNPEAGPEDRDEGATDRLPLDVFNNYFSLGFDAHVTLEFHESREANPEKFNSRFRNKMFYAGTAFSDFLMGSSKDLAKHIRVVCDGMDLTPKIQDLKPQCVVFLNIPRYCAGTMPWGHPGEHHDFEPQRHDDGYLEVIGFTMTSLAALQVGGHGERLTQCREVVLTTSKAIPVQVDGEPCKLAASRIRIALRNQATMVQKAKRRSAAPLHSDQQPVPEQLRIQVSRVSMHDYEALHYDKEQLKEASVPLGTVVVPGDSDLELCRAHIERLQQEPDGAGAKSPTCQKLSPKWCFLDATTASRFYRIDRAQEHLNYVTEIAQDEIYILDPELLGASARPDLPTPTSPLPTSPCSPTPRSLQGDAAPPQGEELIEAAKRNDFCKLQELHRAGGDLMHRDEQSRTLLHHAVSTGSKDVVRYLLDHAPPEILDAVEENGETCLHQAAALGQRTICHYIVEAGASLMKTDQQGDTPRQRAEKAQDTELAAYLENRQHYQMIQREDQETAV

For “human protein kinase C γ (PKCγ) (from UniProt P05129) (enzyme)”, the nuclear localization of DGKζ by subcellular fractionation and immunoblotting [1] was greater than 50%.

For “MARCKS: MARCKS synthetic peptide phosphorylated by PKM (KASKKKKRASFKRKSSKK)”, the Km [2] is given as 20 nM.

For “DGK(A/S) peptide: same peptide with an alanine substituted for the serine at residue 10 (SEQ ID NO: 16) (KASKKKKRAAFKRKSSKK)”, the “rate of phosphorylation relative to native peptide” value ([3]; 0.2 mM peptide, identical conditions) was “approximately 1/6”, the Km ([3]; read-out: Km of possible second, still lower affinity site) was greater than 800 µM and the Km ([3]; initial portion of the rectangular hyperbola, read-out: Km as substrate for PKM) was roughly 50 µM. For the same molecule, the IC50 [4] was roughly 800 nM.

With “DGK.zeta.-2: alternatively spliced muscle form of DGK.zeta., 1,117 amino acid protein (SEQ ID NO: 6)” the DGK activity (DGK.zeta.-2; 1,2-dicapryl-sn-glycerol substrate, typical experiment, FIG. 21) was 6.8 nmol/mg/min and the “DAG kinase activity relative to vector alone” value (DGK.zeta.-2; transfected COS-7 homogenates) was “more than 50 fold”.

“protein kinase M (PKM), purified catalytic fragment of mixed rat brain PKC isozymes (pool or library)” showed a Km of phosphorylation of the peptide by PKM [5] of 500 nM, a Km of a possible second phosphorylation site [6] greater than 800 µM and a Km of phosphorylation of the peptide by PKM [6] of 50 µM.

B1: DGK A/S peptide, the DGK peptide with an alanine substituted for the serine at residue 10 (peptide)
peptide: KASKKKKRAAFKRKSSKK
For B1, the half-maximal inhibition of PKM phosphorylation of histone IIIS [7] was 800 nM.
